Laboratory results from IntAct's records for PubMed 15558030.

B1: Proto-oncogene vav (Homo sapiens), P15498 (parent)
chain: MELWRQCTHWLIQCRVLPPSHRVTWDGAQVCELAQALRDGVLLCQLLNNLLPHAINLREVNLRPQMSQFLCLKNIRTFLSTCCEKFGLKRSELFEAFDLFDVQDFGKVIYTLSALSWTPIAQNRGIMPFPTEEESVGDEDIYSGLSDQIDDTVEEDEDLYDCVENEEAEGDEIYEDLMRSEPVSMPPKMTEYDKRCCCLREIQQTEEKYTDTLGSIQQHFLKPLQRFLKPQDIEIIFINIEDLLRVHTHFLKEMKEALGTPGAANLYQVFIKYKERFLVYGRYCSQVESASKHLDRVAAAREDVQMKLEECSQRANNGRFTLRDLLMVPMQRVLKYHLLLQELVKHTQEAMEKENLRLALDAMRDLAQCVNEVKRDNETLRQITNFQLSIENLDQSLAHYGRPKIDGELKITSVERRSKMDRYAFLLDKALLICKRRGDSYDLKDFVNLHSFQVRDDSSGDRDNKKWSHMFLLIEDQGAQGYELFFKTRELKKKWMEQFEMAISNIYPENATANGHDFQMFSFEETTSCKACQMLLRGTFYQGYRCHRCRASAHKECLGRVPPCGRHGQDFPGTMKKDKLHRRAQDKKRNELGLPKMEVFQEYYGLPPPPGAIGPFLRLNPGDIVELTKAEAEQNWWEGRNTSTNEIGWFPCNRVKPYVHGPPQDLSVHLWYAGPMERAGAESILANRSDGTFLVRQRVKDAAEFAISIKYNVEVKHIKIMTAEGLYRITEKKAFRGLTELVEFYQQNSLKDCFKSLDTTLQFPFKEPEKRTISRPAVGSTKYFGTAKARYDFCARDRSELSLKEGDIIKILNKKGQQGWWRGEIYGRVGWFPANYVEEDYSEYC
partner: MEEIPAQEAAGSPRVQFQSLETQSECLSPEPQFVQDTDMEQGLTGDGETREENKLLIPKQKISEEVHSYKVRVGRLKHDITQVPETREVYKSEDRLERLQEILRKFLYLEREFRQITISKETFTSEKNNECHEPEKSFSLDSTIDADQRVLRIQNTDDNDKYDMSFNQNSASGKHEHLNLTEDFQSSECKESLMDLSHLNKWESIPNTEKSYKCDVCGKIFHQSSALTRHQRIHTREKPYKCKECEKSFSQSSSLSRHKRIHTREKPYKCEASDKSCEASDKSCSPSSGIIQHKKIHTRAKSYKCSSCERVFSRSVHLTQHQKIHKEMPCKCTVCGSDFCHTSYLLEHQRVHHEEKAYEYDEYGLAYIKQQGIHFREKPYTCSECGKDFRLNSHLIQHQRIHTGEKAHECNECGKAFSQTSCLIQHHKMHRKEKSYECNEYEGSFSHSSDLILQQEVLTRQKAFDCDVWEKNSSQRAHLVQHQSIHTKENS

Variants of: B1
Conditions: with zn655_human ZNF655, Q8N720

Variant | effect of a mutation on the interaction
P833L | decreasing interaction
Y836F | decreasing interaction
